Reference: patent US20200206304A1, “METHODS AND COMPOSITIONS FOR EFFICIENT DELIVERY THROUGH MULTIPLE BIO BARRIERS” (Cedars-Sinai Medical Center, priority 2017, published 2020)
Read-outs that look alike come from different tables or passages of the source. Square brackets hold non-standard residues; d marks the D form. Ends that are not written are not given here.

Columns and labels:
[1] = Zeta potential measurements (Zetasizer Nano ZS90); format: physicochemical; conditions: in PBS; voltage 150 mV
Method: Zeta Potential Measurements: Synthesized conjugates were characterized with respect to their ζ potential using a Zetasizer Nano ZS90 (Malvern Instruments, Malvern, UK). Ten microliter aliquots of nanoconjugate samples were diluted in 0.99 mL PBS, and the voltage applied was 150 mV. Data represent the mean of three measurements±their standard deviation.

amyloid β (Aβ) plaques = amyloid β (Aβ) plaques (UniProt P05067); experiment: in vivo labelling of Aβ plaques after i.v. injection of rhodamine-labelled conjugate into APPswe/PS1ΔE9 AD mice, dose 8X; fluorescence microscopy of brain sections
Sequence of amyloid β (Aβ) plaques (P05067 672-713): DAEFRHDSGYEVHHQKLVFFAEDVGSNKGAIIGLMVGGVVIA

brain cells = conditions: 0.274 μmol/kg
Method: For the particulate fluorescence analysis, images were converted to binary images, and then 5 ROIs 20*20 μm^2 were drawn per image. The area of each particle on the ROI was measured using the Image) particle analysis tool, where each particle was measured separately. Sizes were then summarized, sorted, and further analyzed using Minitab18 software (Minitab, Inc, State College, Pa., USA). Particulate areas observed between different conditions were compared via a one-way ANOVA combined with post-hoc Tukey tests to test differences between each experimental group.
A more reliable method to separate the particulate from the cellular fluorescence was reasoned to be by adjusting the levels of the image and converting it to a binary image, allowing the detection of only particulates eliminating interference of the diffused background. FIGS. 29A-29D illustrate intracellular fluorescence of mini nanodrugs.
Each ROI was converted to binary (black and white) image and the area and number of particles were quantified. 3 images per brain area were tested for 3 mice per group.
The particle content (example of ROI in FIG. 29A) then was measured. The average size of the particulate fluorescence is a proxy to estimate the intracellular load of fluorescent nanoconjugates following their injections. An example of such an analysis is shown in FIG. 29A: the yellow squares indicate regions of interest that were used to quantify particulate fluorescence. FIGS. 29B-29C summarize the average size of the intracellular fluorescence particles in the cortex ([…]), midbrain (FIG. 29C), and the hippocampus (FIG. 29C).

brain parenchyma = conditions: cortex; 0.274 μmol/Kg
Method: To determine how nanoconjugate-associated fluorescence relates to the anatomy of the vasculature, the distance of each analyzed ROI was manually measured from the nearest blood vessel wall (using line tool in FIJI). For tumor bearing mice, 5 images per tumor tissue and 5 per brain tissue were analyzed for each mouse. Intensity values were then plotted against the location of the blood vessel wall and summarized in scatterplots (e.g., FIG. 14B).
Drug concentrations are listed with regard to total nanoconjugate content systemically injected. […] Referring to FIG. 14B, fluorescence measurements were obtained from 10 μm^2-sized regions of interest (ROI) that were randomly overlaid on regions devoid of vasculature shown as yellow squares on photograph 1 of FIG. 14A. Intensity measurements and positions were then obtained for each ROI and plotted against the location of the nearest blood vessel wall. FIG. 14C is set of charts: chart 1—Cortex; chart 2—Midbrain and chart 3 Hippocampus, illustrating average nanoconjugate fluorescence in the brain parenchyma measured following injections at four different drug concentrations. In this figure, fluorescence is shown as relative fluorescence, which is the measured nanoconjugate fluorescence after subtraction of autofluorescence imaged from PBS injected animals using similar acquisition settings.
FIG. 14B explores this relationship in a plot from all of the measurements (for each condition: 4 mice, 3-4 sections with 20 random measurements each). All fluorescence intensity measurements were conducted with 10 μm^2-sized regions of interest placed outside of tomato-lectin stained blood vessels (ROI as in Photograph 1 of FIG. 14A); the positions of these ROIs were then measured against the location of the nearest blood vessel wall to produce the scatterplot in FIG. 14B.
The resulting data were used as a metric to examine how well the mini nanodrug was able to travel from the vessels into the surrounding parenchyma and encounter brain cells. […] Nanoconjugate diffused fluorescence intensity vs. ‘distance from vasculature’ measurements in brain parenchyma of mice injected with nanoconjugates at a dose of 0.274 μmol/Kg. Fluorescence measurements were obtained from […] regions of interest (ROI) that were randomly overlaid on regions devoid of vasculature (shown by yellow squares in FIG. 22A). Intensity measurements and positions were then obtained for each ROI and plotted against the location of the nearest blood vessel wall.

neurons = conditions: 0.274 μmol/Kg, vs PBS
glioblastoma GL261 = conditions: mouse, in vivo
Brain (other hemisphere) = conditions: 2 h, PBS background subtracted
neurons and astroglia = conditions: for % of positive cells, Cortex astroglia: astroglia (GFAP); for % of positive cells, Cortex neurons: neurons (Neun)
Method: Neuronal and glial counterstaining: In FIGS. 27A-27C, brain tissue from drug-injected mice was counterstained to determine if our nanoconjugates are taken up by neurons or glia. Cryosections ([…]) were air-dried for 10 min, fixed with 2% paraformaldehyde for 5 min, and then rinsed three times with PBS. […] The antibodies anti-Neun (Abcam, Cambridge, Mass., USA; AB104225) and anti-GFAP (Neuromics, Edina, Minn., USA; C1122102) were then diluted 1:500 in PBS-T and tissue sections incubated simultaneously with antibody solutions overnight at 4° C. in a humid chamber. Tissue sections were then washed five times with PBS-T and incubated in appropriate secondary antibody diluted 1:250 in PBS-T, for 2-4 h. After five washes in PBS at room temperature, sections were mounted between coverslips in Fluoromount-G with DAPI.
To this end, after systemic injection of our D-conjugates we counterstained brain tissue sections of hippocampus and cortex with anti-Neun to label neurons, and with anti-GFAP to label astroglia (FIGS. 27A-27C) and inspected the stained sections for red fluorescent particulates. […] Positive neurons and glia cells were counted after systemic injection of conjugates containing D1, D3, AC189 peptides, and of a control PBS (FIGS. 27A-27C).

Aβ plaque = molecular target: T1, Aβ plaque (Homo sapiens, UniProt P05067); experiment: Percentage of total plaques labeled by mini nanodrugs in AD mice; format: in vivo,  (B6.Cg-Tg (APPswe/PS1ΔE9) 85Dbo/J hemizygous) mice
T1 construct: tissue Jackson Laboratories; host or cells: brain of 6-8 month old APPswe/PS1ΔE9 transgenic mice, plaques labelled in vivo after iv injection and counterstained on sections
T1 sequence (P05067 672-713 limits assumed): as the sequence (P05067 672-713) above
Method: Slides were air dries and fixed using freshly diluted 2% PFA for 5 minutes. The PFA was washed 3 timed with PBS, and brains were covered with 70% EtOH for 5 minutes before washing with dH2O for 2 minutes. 1× Amylo-Glo (Biosenses, #TR-300-AG 100×, diluted with PBS) was then added for 10 minutes. The slides were then washed with PBS (5 minutes) and dH2O (15 seconds) and mounted (Fluoromount-G, No DAPI, Invitrogen), and stored at 4° C. prior to imaging.
Brains were collected and preserved in OTC for immunostaining.

[2] = test system: blood-brain barrier (BBB); conditions: transgenic mice vs normal mice, doses 2×-8×
Method: AD-Mouse models: 6-8 month old […] (B6.Cg-Tg (APPswe/PS1ΔE9) 85Dbo/J hemizygous) mice were obtained from Jackson Laboratories. Mouse maintenance and experimental procedures followed the guidelines established by the Cedars Sinai Institutional Animal Care and Use Committee (IACUC Protocol #7416). Three to four mice of each sex were used for each experiment. Nanoconjugates were dissolved freshly in PBS (pH 7.4) prior to each experiment and injected intravenously (i.v.) into the lateral tail vein. […] Mice were anesthetized with isoflurane beforehand and their tails were briefly warmed to facilitate injections. The drug injection volume was kept constant at 150 μL. After each injection, mice were promptly returned to their cages. Brains were collected and preserved in OTC for immunostaining.
The brains were harvested and a 14 μm thick slices which were fixed and stained with DAPI to envision the nuclei
A comparison with normal brain was beneficial for understanding of the development of Alzheimer's disease.

[3] = molecular target: low density lipoprotein receptor-related protein-1 (LRP-1) (mouse (endogenous receptor of the injected BALB/C mice)) (UniProt Q91ZX7); experiment: cell-based or functional assay
Sequence of low density lipoprotein receptor-related protein-1 (LRP-1) (mouse (endogenous receptor of the injected BALB/C mice)) (Q91ZX7 20-4545): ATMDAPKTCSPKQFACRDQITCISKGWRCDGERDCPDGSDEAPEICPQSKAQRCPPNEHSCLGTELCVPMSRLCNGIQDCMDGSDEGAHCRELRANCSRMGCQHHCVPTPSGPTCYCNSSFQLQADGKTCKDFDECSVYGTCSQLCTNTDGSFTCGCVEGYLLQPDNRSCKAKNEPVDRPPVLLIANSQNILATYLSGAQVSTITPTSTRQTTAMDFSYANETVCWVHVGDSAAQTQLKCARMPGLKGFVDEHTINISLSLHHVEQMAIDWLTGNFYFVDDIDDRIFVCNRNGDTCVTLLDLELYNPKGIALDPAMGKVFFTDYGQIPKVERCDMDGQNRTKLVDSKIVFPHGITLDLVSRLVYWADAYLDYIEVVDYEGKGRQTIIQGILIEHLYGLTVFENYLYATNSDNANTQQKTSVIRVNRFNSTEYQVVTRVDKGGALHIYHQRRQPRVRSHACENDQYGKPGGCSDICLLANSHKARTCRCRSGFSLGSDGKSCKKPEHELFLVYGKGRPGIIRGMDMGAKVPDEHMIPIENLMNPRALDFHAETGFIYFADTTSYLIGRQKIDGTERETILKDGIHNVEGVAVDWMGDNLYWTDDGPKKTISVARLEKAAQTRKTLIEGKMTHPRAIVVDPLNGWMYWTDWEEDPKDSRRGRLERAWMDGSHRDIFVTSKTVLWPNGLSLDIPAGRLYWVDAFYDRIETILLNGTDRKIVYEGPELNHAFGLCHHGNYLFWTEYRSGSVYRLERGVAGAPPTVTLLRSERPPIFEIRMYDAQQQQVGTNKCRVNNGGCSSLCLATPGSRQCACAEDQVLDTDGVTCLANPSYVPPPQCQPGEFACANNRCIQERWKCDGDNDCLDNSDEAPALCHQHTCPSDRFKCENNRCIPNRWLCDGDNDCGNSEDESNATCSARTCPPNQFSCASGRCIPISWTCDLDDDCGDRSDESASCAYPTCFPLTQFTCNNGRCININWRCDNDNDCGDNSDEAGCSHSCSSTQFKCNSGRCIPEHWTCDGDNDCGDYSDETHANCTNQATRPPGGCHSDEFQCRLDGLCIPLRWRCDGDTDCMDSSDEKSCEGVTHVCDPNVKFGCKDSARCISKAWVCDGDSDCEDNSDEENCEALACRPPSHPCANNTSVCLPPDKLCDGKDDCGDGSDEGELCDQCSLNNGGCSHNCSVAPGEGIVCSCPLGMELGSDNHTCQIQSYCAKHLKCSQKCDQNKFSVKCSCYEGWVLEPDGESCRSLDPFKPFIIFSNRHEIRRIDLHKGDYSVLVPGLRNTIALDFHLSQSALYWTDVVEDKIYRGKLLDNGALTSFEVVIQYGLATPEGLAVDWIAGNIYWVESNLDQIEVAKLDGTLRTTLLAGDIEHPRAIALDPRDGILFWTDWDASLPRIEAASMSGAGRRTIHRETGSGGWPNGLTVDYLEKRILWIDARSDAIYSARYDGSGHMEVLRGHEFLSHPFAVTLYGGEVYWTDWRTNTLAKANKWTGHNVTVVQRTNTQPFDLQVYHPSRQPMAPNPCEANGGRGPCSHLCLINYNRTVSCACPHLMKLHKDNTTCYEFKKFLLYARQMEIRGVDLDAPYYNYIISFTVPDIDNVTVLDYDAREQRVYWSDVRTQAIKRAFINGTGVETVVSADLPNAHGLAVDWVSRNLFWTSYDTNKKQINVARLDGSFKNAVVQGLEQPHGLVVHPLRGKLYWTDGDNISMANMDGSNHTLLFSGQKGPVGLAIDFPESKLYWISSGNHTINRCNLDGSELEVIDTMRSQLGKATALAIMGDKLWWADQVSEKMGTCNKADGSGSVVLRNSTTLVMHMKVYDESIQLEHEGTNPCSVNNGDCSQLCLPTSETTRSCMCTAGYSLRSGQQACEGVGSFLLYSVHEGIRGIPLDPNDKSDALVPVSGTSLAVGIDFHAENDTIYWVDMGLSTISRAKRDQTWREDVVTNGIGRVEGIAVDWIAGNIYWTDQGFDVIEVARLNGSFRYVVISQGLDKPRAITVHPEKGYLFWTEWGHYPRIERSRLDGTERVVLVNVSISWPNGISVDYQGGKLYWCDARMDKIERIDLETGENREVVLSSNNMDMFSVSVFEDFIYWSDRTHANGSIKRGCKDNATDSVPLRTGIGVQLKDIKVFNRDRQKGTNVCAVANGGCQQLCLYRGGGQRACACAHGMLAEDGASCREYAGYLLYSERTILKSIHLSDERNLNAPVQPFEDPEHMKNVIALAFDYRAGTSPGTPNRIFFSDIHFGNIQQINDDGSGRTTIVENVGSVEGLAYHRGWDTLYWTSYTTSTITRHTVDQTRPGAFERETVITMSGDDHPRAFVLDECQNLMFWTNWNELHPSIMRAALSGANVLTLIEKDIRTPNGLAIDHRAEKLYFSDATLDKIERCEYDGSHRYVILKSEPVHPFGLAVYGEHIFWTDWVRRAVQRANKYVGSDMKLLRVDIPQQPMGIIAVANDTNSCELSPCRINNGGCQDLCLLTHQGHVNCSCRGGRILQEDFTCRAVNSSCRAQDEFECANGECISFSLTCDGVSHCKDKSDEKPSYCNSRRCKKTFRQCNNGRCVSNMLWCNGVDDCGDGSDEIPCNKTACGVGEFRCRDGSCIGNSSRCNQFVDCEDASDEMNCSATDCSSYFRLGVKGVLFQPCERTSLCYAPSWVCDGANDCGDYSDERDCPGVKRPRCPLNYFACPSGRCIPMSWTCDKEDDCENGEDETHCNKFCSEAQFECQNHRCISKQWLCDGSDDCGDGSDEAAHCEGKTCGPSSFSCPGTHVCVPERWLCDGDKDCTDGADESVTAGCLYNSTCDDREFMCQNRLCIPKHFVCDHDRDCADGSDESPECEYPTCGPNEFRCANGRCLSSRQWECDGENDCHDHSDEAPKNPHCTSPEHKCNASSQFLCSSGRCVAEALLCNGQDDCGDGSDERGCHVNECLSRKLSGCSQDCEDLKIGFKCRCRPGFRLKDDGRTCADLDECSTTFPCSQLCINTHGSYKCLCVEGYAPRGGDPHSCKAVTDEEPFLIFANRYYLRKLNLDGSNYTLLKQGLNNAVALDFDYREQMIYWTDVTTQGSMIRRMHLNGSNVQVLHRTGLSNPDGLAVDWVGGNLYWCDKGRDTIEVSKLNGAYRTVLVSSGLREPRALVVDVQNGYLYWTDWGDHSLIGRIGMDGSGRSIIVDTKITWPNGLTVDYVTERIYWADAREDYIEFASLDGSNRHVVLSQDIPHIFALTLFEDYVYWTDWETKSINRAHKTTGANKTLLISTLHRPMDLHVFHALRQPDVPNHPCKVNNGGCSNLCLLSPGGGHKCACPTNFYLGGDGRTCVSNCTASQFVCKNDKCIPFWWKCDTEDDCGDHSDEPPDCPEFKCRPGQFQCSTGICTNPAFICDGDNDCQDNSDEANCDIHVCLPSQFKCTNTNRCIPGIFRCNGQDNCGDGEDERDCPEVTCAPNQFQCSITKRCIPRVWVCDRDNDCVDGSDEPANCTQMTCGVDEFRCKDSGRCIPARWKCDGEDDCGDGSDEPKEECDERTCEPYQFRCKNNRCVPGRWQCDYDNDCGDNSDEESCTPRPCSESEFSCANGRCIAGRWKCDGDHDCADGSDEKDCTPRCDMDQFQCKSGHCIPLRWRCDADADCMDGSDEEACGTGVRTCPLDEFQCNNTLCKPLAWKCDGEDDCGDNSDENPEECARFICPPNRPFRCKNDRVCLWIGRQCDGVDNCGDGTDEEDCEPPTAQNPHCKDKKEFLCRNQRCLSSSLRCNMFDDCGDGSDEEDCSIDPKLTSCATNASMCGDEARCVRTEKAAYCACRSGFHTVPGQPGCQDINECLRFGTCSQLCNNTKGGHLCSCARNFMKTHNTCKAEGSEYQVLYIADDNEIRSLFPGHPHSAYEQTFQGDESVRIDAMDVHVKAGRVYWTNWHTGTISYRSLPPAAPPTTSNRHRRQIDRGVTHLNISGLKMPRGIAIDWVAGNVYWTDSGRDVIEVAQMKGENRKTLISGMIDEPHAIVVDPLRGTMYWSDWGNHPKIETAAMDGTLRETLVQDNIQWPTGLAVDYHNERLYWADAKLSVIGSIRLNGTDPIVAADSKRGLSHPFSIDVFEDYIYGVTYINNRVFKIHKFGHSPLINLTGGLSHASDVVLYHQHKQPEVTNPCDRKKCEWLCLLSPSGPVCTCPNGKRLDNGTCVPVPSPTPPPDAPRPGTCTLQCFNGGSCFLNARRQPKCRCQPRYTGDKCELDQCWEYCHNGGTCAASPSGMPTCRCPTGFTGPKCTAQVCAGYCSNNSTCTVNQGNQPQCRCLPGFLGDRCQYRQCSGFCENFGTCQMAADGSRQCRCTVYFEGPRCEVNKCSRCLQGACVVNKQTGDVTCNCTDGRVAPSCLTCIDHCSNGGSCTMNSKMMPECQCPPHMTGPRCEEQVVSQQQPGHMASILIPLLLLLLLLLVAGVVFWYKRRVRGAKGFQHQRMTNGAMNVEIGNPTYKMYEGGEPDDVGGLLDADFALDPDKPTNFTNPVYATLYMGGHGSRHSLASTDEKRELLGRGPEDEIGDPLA

[4] = injected dose 8X (0.55 μmol/Kg)

PMLA/LLL/AP2/Miniap4/rhodamine [P/LLL/AP2/M4]
ζ potential [1]: −5.5 mV

PMLA/LLL/B6/rhodamine
Percentage of total plaques labeled by the reagents (amyloid β (Aβ) plaques): 3.3%

PMLA/LLL/rhodamine
Percentage of total plaques labeled by the reagents (amyloid β (Aβ) plaques): 4.5%

PMLA/M4/rhodamine (KAPETALD; not fully specified) [P/M4]
ζ potential [1]: −14.6 mV

PMLA/LLL/D1/rhodamine (peptide 1 QSHYRHISPAQVC; peptide 2 Leu-Leu-Leu; not fully specified) [P/LLL/D1]
increase of particle diameter in comparison with PBS (brain cells): 2.5 fold | cortex Y intercepts of fluorescence vs distance curves (exponential fits) (brain parenchyma): 21.6 | average fluorescence per neuron nucleus (in words) (neurons): significantly higher than for PBS | Tumor fluorescence (glioblastoma GL261): 86.6 | ratio Tumor/Brain (glioblastoma GL261): 16.4 | Brain (other hemisphere) fluorescence (Brain (other hemisphere); dose 4X): 5.3 | #Labeled/#total counted cells, Cortex astroglia (neurons and astroglia): [5/40] | % of positive cells, Cortex astroglia (neurons and astroglia): 12.5% | #Labeled/#total counted cells, Cortex neurons (neurons and astroglia): [119/141] | % of positive cells, Cortex neurons (neurons and astroglia): 84.4% | #Labeled/#total counted cells, Hippocampus astroglia (neurons and astroglia): [4/57] | % of positive cells, Hippocampus astroglia (neurons and astroglia): 7.0% | #Labeled/#total counted cells, Hippocampus neurons (neurons and astroglia): [286/433] | % of positive cells, Hippocampus neurons (neurons and astroglia): 66.0% | Percentage of total plaques labeled by the reagents (Aβ plaque; [4]): 0%

PMLA/LLL/rhodamine (Leu-Leu-Leu; also: conjugated to PMLA with rhodamine, link not given here) [P/LLL, polymalic acid with tri-leucine (40%) and rhodamine]
Percentage of total plaques labeled by the reagents (Aβ plaque; [4]): 4.5%

PMLA/LLL/B6/rhodamine (peptide 1 CGHKAKGPRK; peptide 2 Leu-Leu-Leu; also: conjugated to polymalic acid (PMLA), rhodamine label) [P/LLL/B6]
dose-dependent change of tumor fluorescence between 1× and 4× (glioblastoma GL261): 23 fold | Brain (other hemisphere) fluorescence (Brain (other hemisphere); dose 1X): 1.2 | Brain (other hemisphere) fluorescence (Brain (other hemisphere); dose 4X): 6.8 | ζ potential [1]: −6.1 mV | Percentage of total plaques labeled by the reagents (Aβ plaque; [4]): 3.3% | BBB permeation efficacy in AD brain (in words) [2]: A decrease was not observed

PMLA/LLL/M4/rhodamine (peptide 1 KAPETALD; peptide 2 Leu-Leu-Leu; not fully specified) [P/LLL/M4]
Tumor fluorescence (glioblastoma GL261): 86.2 | ratio Tumor/Brain (glioblastoma GL261): 22.8 | Brain (other hemisphere) fluorescence (Brain (other hemisphere); dose 4X): 3.8 | ζ potential [1]: −10.4 mV | Percentage of total plaques labeled by the reagents (Aβ plaque; [4]): 0%

PMLA/LLL/D3/rhodamine (peptide 1 RPRTRLHTHRNRC; peptide 2 Leu-Leu-Leu; not fully specified (some residues)) [P/LLL/D3]
increase of particle diameter in comparison with PBS (brain cells): 2.5 fold | cortex Y intercepts of fluorescence vs distance curves (exponential fits) (brain parenchyma): 21.1 | average fluorescence per neuron nucleus (in words) (neurons): significantly higher than for PBS | Tumor fluorescence (glioblastoma GL261): 92.6 | ratio Tumor/Brain (glioblastoma GL261): 11.9 | Brain (other hemisphere) fluorescence (Brain (other hemisphere); dose 4X): 7.8 | #Labeled/#total counted cells, Cortex astroglia (neurons and astroglia): [7/46] | % of positive cells, Cortex astroglia (neurons and astroglia): 15.2% | #Labeled/#total counted cells, Cortex neurons (neurons and astroglia): [286/300] | % of positive cells, Cortex neurons (neurons and astroglia): 95.3% | #Labeled/#total counted cells, Hippocampus astroglia (neurons and astroglia): [14/47] | % of positive cells, Hippocampus astroglia (neurons and astroglia): 29.8% | #Labeled/#total counted cells, Hippocampus neurons (neurons and astroglia): [894/967] | % of positive cells, Hippocampus neurons (neurons and astroglia): 92.45% | Percentage of total plaques labeled by the reagents (Aβ plaque; injected dose 2X): 0% all in a single box | Percentage of total plaques labeled by the reagents (Aβ plaque; injected dose 4X): 0% | Percentage of total plaques labeled by the reagents (Aβ plaque; injected dose 6X): 0% | Percentage of total plaques labeled by the reagents (Aβ plaque; [4]): 21.1%

PMLA/LLL/AP2/rhodamine
Percentage of total plaques labeled by the reagents (amyloid β (Aβ) plaques): 1.23%

B1: PMLA/LLL/D1/rhodamine (peptide)
peptide 1: [dQ][dS][dH][dY][dR][dH][dI][dS][dP][dA][dQ][dV]C
peptide 2: Leu-Leu-Leu
modifications: not fully specified (some residues, N-terminus); also: LLL amide-linked to PMLA carboxylates
P/LLL/D1/rh fluorescence intensity in the brain parenchyma (BBB crossing) on co-injection of a 70-fold molar excess of AP2 [3]: 54.5% | P/LLL/D1/rh fluorescence intensity in the parenchyma (transcytosis) with 21 µmol/kg free AP2 [3]: 50%
